Publication PMC2917047

Biological target: PDE6αβ catalytic dimer of rod cGMP phosphodiesterase 6 (bovine) (UniProt P11541)
Assay: SDS-PAGE with Coomassie Blue densitometry of the purified complexes

Sequence of PDE6αβ catalytic dimer of rod cGMP phosphodiesterase 6 (bovine) (P11541 whole entry, chain 1 of 2): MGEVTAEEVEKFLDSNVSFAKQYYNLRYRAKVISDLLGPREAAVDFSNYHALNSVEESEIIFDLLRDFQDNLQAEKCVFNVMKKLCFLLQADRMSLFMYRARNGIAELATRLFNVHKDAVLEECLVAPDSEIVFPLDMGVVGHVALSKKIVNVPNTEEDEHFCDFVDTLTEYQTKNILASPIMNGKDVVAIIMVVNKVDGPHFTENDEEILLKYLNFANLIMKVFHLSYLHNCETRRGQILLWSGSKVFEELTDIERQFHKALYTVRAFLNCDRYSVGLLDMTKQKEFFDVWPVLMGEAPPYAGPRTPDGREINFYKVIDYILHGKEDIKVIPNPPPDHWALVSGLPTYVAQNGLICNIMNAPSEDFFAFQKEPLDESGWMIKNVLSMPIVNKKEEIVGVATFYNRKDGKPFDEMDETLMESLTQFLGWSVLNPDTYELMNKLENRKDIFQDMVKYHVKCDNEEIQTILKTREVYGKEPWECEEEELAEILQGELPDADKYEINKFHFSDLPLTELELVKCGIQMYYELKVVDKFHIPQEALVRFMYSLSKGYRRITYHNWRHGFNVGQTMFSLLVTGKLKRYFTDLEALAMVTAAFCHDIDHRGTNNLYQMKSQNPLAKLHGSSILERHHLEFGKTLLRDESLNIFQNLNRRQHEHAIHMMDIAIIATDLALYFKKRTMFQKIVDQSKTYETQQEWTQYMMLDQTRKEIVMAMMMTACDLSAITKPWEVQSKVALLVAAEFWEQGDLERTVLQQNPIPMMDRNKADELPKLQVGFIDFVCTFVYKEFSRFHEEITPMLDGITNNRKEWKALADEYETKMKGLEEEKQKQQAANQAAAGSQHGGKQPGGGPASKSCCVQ
Sequence of PDE6αβ catalytic dimer of rod cGMP phosphodiesterase 6 (bovine) (P23439 whole entry, chain 2 of 2, further chain): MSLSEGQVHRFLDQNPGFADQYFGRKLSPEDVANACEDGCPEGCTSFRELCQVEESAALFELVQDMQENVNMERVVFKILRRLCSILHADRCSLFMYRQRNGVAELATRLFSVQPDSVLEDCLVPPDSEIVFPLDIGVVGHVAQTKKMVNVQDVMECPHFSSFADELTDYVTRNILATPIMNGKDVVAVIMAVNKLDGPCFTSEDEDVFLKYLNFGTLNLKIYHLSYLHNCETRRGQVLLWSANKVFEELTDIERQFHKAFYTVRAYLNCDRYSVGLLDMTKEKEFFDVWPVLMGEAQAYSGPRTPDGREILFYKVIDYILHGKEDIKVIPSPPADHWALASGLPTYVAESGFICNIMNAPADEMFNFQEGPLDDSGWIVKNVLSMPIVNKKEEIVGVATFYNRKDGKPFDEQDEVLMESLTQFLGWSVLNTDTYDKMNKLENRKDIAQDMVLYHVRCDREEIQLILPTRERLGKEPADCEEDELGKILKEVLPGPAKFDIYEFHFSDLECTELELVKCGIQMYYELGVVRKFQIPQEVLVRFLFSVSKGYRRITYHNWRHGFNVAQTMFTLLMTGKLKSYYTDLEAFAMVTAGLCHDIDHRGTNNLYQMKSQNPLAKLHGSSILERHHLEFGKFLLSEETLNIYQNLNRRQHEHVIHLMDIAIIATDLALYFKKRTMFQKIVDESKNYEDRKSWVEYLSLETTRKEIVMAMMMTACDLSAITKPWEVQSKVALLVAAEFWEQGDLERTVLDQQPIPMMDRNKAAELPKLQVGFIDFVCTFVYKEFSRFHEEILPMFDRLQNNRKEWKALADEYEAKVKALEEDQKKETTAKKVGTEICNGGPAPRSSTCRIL

B1: PDE6γ regulatory (inhibitory) subunit of rod cGMP phosphodiesterase 6 (natural protein)
chain: MNLEPPKAEIRSATRVMGGPVTPRKGPPKFKQRQTRQFKSKPPKKGVQGFGDDIPGMEGLGTDITVICPWEAFNHLELHELAQYGII
stoichiometry N: 2
